Target: receptor for activated C kinase (RACK1), endogenous, HT-1080 cells (human) (UniProt P63244)
Experiment: cell-based or functional assay

NHE6^527-588 peptide (pcDNA3-HA/NHE6^527-588), sequence (Q92581 559-620): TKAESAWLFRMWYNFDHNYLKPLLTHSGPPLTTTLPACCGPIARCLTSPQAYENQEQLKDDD

Fold (doxorubicin IC50 at 1% O2 against 21% O2): 1.6 fold | increase in drug sensitivity to Dox in cells exposed to hypoxia: 2.8 fold
Substance: NHE6^527-588 peptide (pcDNA3-HA/NHE6^527-588)
IC50 of doxorubicin, HT-1080 overexpressing the peptide, MTT viability, 1% O2: 224 nM | IC50 of doxorubicin, HT-1080 overexpressing the peptide, MTT viability, 21% O2: 137 nM

From patent US20180353525A1
